Source: patent publication US20220356229A1

Target: SARS-CoV-2 full length Spike protein, wild type, expressed on the surface of transiently transfected CHO cells (SARS-CoV-2), P0DTC2
Settings: remark: other sources report otherwise

B1: antibody 262 (antibody, V domains shown)
VH: QVQLVESGGGVVQPGRSLRLSCAASGFTFSSYAMHWVRQAPGKGLEWVAVISYDGSNKYYADSVKGRFTISRDNSKNTLYLQMNSLRAEDTAVYYCARDGGELLWFGELDYYGMDVWGQGTTVTVSS
VL: SYELTQPSSVSVSPGQTARITCSGDVLAKKYARWFQQKPGQAPVLVIYKDSERPSGIPERFSGSSSGTTVTLTISGAQVEDEADYYCYSAADNNRGVFGGGTKLTVL
In the case of B1, the median fluorescence intensity, fold over isotype control (fold over isotype) is reported as 0.89.
